The text below walks through data of article PMC12375015.

The target of the assay is Cas7 of the PseCAST TniQ-Cascade (QCascade) complex (Pseudoalteromonas (Tn7016 transposon)). Kind of assay: cryo-EM structure.

“Cas7 of the PseCAST TniQ-Cascade (QCascade) complex (natural protein)”: the stoichiometry N is 6.
